Experimental data: publication PMC12822413
pKd: −log10 of the molar value.

Key:
[1] = target: TSHR on TSHR-293T cells (Homo sapiens) (UniProt P16473); experiment: flow cytometry; conditions: Flow: DPBS, 5 mM MgCl2, 4.5 g/L glucose, 0.1 mg/mL yeast tRNA, 1 mg/mL BSA, 4 C 30 min; SPR: DPBS, 5 mM Mg2+, pH 7.4, 25 C
[2] = target: endogenous TSHR on Graves' orbital fibroblasts (GOFs) (Homo sapiens) (UniProt P16473); experiment: flow cytometry; conditions: Flow: DPBS, 5 mM MgCl2, 4.5 g/L glucose, 0.1 mg/mL yeast tRNA, 1 mg/mL BSA, 4 C 30 min; SPR: DPBS, 5 mM Mg2+, pH 7.4, 25 C
Sequence of endogenous TSHR on Graves' orbital fibroblasts (GOFs) (Homo sapiens) (P16473 21-764): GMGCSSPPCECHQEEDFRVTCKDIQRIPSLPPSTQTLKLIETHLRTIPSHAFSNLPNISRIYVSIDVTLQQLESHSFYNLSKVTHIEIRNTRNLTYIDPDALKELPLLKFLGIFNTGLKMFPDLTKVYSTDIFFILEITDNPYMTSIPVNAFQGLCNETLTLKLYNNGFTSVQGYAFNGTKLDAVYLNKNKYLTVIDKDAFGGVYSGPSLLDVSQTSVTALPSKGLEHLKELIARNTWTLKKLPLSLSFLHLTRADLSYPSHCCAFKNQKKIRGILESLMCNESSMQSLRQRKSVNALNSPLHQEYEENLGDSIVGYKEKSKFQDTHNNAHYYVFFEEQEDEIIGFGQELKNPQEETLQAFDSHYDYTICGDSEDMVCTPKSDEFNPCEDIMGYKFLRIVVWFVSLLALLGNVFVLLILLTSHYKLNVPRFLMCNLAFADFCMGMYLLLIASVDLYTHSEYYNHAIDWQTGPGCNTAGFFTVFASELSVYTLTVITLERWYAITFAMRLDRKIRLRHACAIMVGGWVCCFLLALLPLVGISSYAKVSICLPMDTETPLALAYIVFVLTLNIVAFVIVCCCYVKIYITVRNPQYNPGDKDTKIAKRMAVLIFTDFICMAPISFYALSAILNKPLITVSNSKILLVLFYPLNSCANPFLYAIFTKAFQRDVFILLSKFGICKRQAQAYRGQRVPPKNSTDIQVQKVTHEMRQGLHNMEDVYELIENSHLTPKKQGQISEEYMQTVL

Sequence of TSHR on TSHR-293T cells (Homo sapiens) (P16473 21-764): as above

ACCGACCGTGCTGGACTCAGATGAACAATCGATGGAAGATTGGGTCGCACCGGCCTCTTTCACTATGAGCGAGCCTGGCG [YC3]
pKd [1]: 6.59 | pKd [2]: 7.00
